# Biological target: T1, QscR (Pseudomonas aeruginosa PAO1?) (UniProt G3XD77)
# T1 sequence: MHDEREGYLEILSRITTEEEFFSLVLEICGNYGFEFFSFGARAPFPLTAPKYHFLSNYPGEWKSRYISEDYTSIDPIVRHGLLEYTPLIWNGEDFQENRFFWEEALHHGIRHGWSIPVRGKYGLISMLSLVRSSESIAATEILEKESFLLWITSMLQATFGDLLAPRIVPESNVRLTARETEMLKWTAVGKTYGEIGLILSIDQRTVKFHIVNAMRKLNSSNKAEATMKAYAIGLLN
# Test: EMSA
# Conditions: EMSA: 40 ng probe, 0-100 ng QscR in 10 ul; 20 mM Tris pH 7.5, 50 mM KCl, 10% glycerol, 1 mM DTT, 20 uM 3OC12-HSL; 20 min room temperature; 5% native gel at …
row,Sequence,binding
1,CTCTCGTGTGAAGCCATTGCTCTGATCTTTTCGGACGTTTCTTCGAGCCTAGCAAGGGTCCGGGTTCACCGAAATCTATCTCATTTGCTAGTTATAAAATTATGAAATTTGCATAAATTCTTCAGCTTCCTATTTGGAGGAAGTGAAGATGATCGTACAAATTGGTCGGCGCGAAGAGTTCGATAAAAAACTGCTGGGCGAGATGCACAAGTTGCGTGCTCAAGTGTTC (double strand) [lasI promoter PCR fragment],no binding
2,GCTTCACCGAGCAGAACTCCGGGCTGATCTACCGCGGGCAATCAGGCGGAATGAACGAAGCGTTCTCCGACATGGCCGGCGAGGCTGCCGAGTTCTATATGCGCGGCAAGAACGACTTCCTGATCGGCTACGACATCAAGAAGGGCAGCGGTGCGCTGCGCTACATGGACCAGCCCAGCC (double strand) [lasB promoter PCR fragment],no binding

# From PMC6113619
